Assay results reported in the RNAGym collection of RNA variant scans (doi:10.1093/molbev/msab373).

B1: Azoarcus group I ribozyme (parent)
chain: GUGCCUUGCGCCGGGAAACCACGCAAGGGAUGGUGUCAAAUUCGGCGAAACCUAAGCGCCCGCCCGGGCGUAUGGCAACGCCGAGCCAAGCUUCGGCGCCUGCGCCGAUGAAGGUGUAGAGACUAGACGGCACCCACCUAAGGCAAACGCUAUGGUGAAGGCAUAGUCCAGGGAGUGGCGAAAGUCACACAAACCGG

Variants of: B1
Test: reverse-splicing fitness (ratio to wild type); higher = more active; in vitro selection; Mg2+ level not given
Method in brief: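 An in vitro group I ribozyme library with randomized positions was T7-transcribed and gel-purified. In triplicate, 10 pmol RNA in EPPS pH 7.5 was reacted with 50 pmoles of a 30-nt RNA substrate for 1 h at 37 °C across several added MgCl2 levels (1–48 mM), then stopped with EDTA. Products were reverse transcribed from a substrate-complementary primer, PCR-amplified and sequenced (HiSeq 4000). Fitness is a variant's read proportion after selection over that before, normalised to wild type.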

Variant	reverse-splicing fitness
C82G A111C A120G C150G C169A U176G	0.00686
C82G A111C A120G C150G C169U U176C	0.0132
C82G A111C A120G C150G C169U U176A	0.0081
C82G A111C A120G C150G C169U U176G	0.00589
C82G A111C A120G C150U C169U U176G	0.00546
C82G A111C A120G C150U C169U U176A	0.0146
C82G A111C A120G C150U C169U U176C	0.0156
C82G A111C A120U A145C C169G U176C	0.00339
C82G A111C A120U A145C C169G U176A	0.00322
C82G A111C A120U A145C C169G U176G	0.00197
C82G A111C A120U A145C C150G C169G U176A	0.00317
C82G A111C A120U A145C C150G C169G U176C	0.00245
C82G A111C A120U A145C C150G C169G U176G	0.00233
C82G A111C A120U A145C C150U C169G U176C	0.00305
C82G A111C A120U A145C C150U C169G U176A	0.00257
C82G A111C A120U A145C C150U C169G U176G	0.00262
C82G A111C A120G A145U U176G	0.00575
C82G A111C A120G A145U U176C	0.0232
C82G A111C A120G A145U U176A	0.016
C82G A111C A120G A145U C169A	0.00975
C82G A111C A120G A145U C169U	0.0104

Variant	reverse-splicing fitness
C82G A111C A120G A145U C169G	0.0132
C82G A111C A120G C150A	0.0103
C82G A111C A120G C150U	0.0121
C82G A111C A120G C150G	0.00691
C82G A111C A120U A145G C150A C169U U176G	0.00259
C82G A111C A120U A145G C150A C169U U176C	0.00449
C82G A111C A120U A145G C150A C169U U176A	0.00632
C82G A111C A120G C150U C169G U176A	0.0141
C82G A111C A120G C150U C169G U176G	0.00537
C82G A111C A120G C150U C169G U176C	0.0187
C82G A111C A120G C150U C169A U176G	0.00607
C82G A111C A120G C150U C169A U176A	0.0141
C82G A111C A120G C150U C169A U176C	0.0135
C82G A111C A120G C150A C169A	0.0116
C82G A111C A120G C150A C169G	0.00935
C82G A111C A120G C150A C169U	0.00859
C82G A111C A120G C150G C169G U176C	0.00508
C82G A111C A120G C150G C169G U176A	0.00677
C82G A111C A120G C150G C169G U176G	0.00467
C82G A111C A120G C169G	0.0132
C82G A111C A120G C169U	0.00963

Variant	reverse-splicing fitness
C82G A111C A120G C169A	0.0107
C82G A111C A120U A145C C150U C169U U176G	0.00249
C82G A111C A120U A145C C150U C169U U176C	0.00256
C82G A111C A120U A145C C150U C169U U176A	0.00337
C82G A111C A120G C150A C169A U176C	0.0214
C82G A111C A120G C150A C169A U176A	0.0179
C82G A111C A120G C150A C169A U176G	0.00716
C82G A111C A120U A145G C150A C169G U176G	0.00277
C82G A111C A120U A145G C150A C169G U176A	0.00649
C82G A111C A120U A145G C150A C169G U176C	0.00534
C82G A111C A120G C169A U176G	0.00442
C82G A111C A120G C169A U176A	0.016
C82G A111C A120G C169A U176C	0.0206
C82G A111C A120G A145U C150U C169G U176A	0.0127
C82G A111C A120G A145U C150U C169G U176G	0.00519
C82G A111C A120G A145U C150U C169G U176C	0.0134
C82G A111C A120U A145C C150U C169A U176G	0.0025
C82G A111C A120U A145C C150U C169A U176C	0.0022
C82G A111C A120U A145C C150U C169A U176A	0.00238
C82G A111C A120U A145C C169U U176A	0.00293
C82G A111C A120U A145C C169U U176C	0.00289

Variant	reverse-splicing fitness
C82G A111C A120U A145C C169U U176G	0.00214
C82G A111C A120U A145C U176C	0.013
C82G A111C A120U A145C U176A	0.0111
C82G A111C A120U A145C U176G	0.00462
C82G A111C A120G A145U C150U U176C	0.0179
C82G A111C A120G A145U C150U U176A	0.0115
C82G A111C A120G A145U C150U U176G	0.00613
C82G A111C A120G A145U C169U U176C	0.014
C82G A111C A120G A145U C169U U176G	0.00395
C82G A111C A120G A145U C169U U176A	0.0144
C82G A111C A120U A145G C150A	0.0106
C82G A111C A120U A145C C150G C169U	0.00395
C82G A111C A120U A145C C150G C169G	0.0033
C82G A111C A120U A145C C150G C169A	0.00373
C82G A111C A120U	0.0509
C82G A111C A120G C150A C169G U176A	0.0195
C82G A111C A120G C150A C169G U176G	0.00569
C82G A111C A120G C150A C169G U176C	0.025
C82G A111C A120U A145C C150A C169A U176A	0.00209
C82G A111C A120U A145C C150A C169A U176C	0.00225
C82G A111C A120U A145C C150A C169A U176G	0.00281
